Ends that are not written are not given here.

For this assay, the target named is T1, GST–ETV1(249–477) fusion protein (UniProt P50549 249-477).
T1 construct: ETV1, C-terminal half, residues 249-477; In the MST it was labelled through an anti-GST mouse mAb coupled to Alexa Fluor 647; also called fusion between GST and the C-terminal half of ETV1 (aa 249–477); source: E. coli, purified
T1 sequence (looked up): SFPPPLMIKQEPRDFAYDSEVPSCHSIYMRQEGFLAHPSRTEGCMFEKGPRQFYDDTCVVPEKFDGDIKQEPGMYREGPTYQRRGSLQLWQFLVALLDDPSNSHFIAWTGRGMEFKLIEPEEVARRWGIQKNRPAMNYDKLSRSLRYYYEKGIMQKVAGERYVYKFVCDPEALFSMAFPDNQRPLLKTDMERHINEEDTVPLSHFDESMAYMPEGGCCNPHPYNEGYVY
Description: MST; Monolith NT.115; 15 serial dilutions of peptide (starting concentration 50 μM) against 300 nM GST–ETV1(249–477) with 20 nM anti-GST mouse mAb coupled to Alexa Fluor 647; PBS with 0.05% Tween-20. The conditions noted are these: both partners purified.

B1: unmethylated (WT) peptide spanning JMJD2A aa 490–522 (peptide, UniProt O75164 490-522, looked up)
peptide: VNPASVGGRLVFSGSKKKSSSSLGSGSSRDSIS-NH2
notes: JMJD2A/KDM4A, human, residues 490-522; also called JMJD2A aa 490–522 peptide; source: synthetic peptide (GenScript)
A word on the Kd: it is the constant that tells how readily two partners part at equilibrium. Low readings indicate tighter binding, high ones weaker binding. In turn, B1 yielded a Kd of 25.4 µM.

B2: triple methylated (on K505, K506, and K507; 3xme) peptide spanning JMJD2A aa 490–522 (peptide, UniProt O75164 490-522, looked up)
peptide: VNPASVGGRLVFSGSK(Me)K(Me)K(Me)SSSSLGSGSSRDSIS-NH2
modifications: N-terminus assumed
SMILES: CC[C@H](C)[C@H](NC(=O)[C@H](CO)NC(=O)[C@H](CC(=O)O)NC(=O)[C@H](CCCNC(=N)N)NC(=O)[C@H](CO)NC(=O)[C@H](CO)NC(=O)CNC(=O)[C@H](CO)NC(=O)CNC(=O)[C@H](CC(C)C)NC(=O)[C@H](CO)NC(=O)[C@H](CO)NC(=O)[C@H](CO)NC(=O)[C@H](CO)NC(=O)[C@H](CCCCNC)NC(=O)[C@H](CCCCNC)NC(=O)[C@H](CCCCNC)NC(=O)[C@H](CO)NC(=O)CNC(=O)[C@H](CO)NC(=O)[C@H](Cc1ccccc1)NC(=O)[C@@H](NC(=O)[C@H](CC(C)C)NC(=O)[C@H](CCCNC(=N)N)NC(=O)CNC(=O)CNC(=O)[C@@H](NC(=O)[C@H](CO)NC(=O)[C@H](C)NC(=O)[C@@H]1CCCN1C(=O)[C@H](CC(N)=O)NC(=O)[C@@H](N)C(C)C)C(C)C)C(C)C)C(=O)N[C@@H](CO)C(N)=O
notes: JMJD2A/KDM4A, human, residues 490-522; source: synthetic peptide (GenScript)
Consider B2, for which the Kd amounted to 8.7 µM.
